Earlier results on 2 substances are cited in PMC5709052.

Where two headings read alike, the source gives them in different places.

The target of data set [1] is CYP102A1 reductase domain (BMR) reductase domain (Priestia megaterium) (UniProt P14779).
The target is the same in data set [2]. This is another data set of the same source.
Data set [3] has the same target. Put plainly: absorption spectroscopy titration.
Data set [4] shares this target. Nature of the data set: absorption spectroscopy titration. The source holds these as a separate data set.

UniProt P14779, sequence (P14779 473-1049): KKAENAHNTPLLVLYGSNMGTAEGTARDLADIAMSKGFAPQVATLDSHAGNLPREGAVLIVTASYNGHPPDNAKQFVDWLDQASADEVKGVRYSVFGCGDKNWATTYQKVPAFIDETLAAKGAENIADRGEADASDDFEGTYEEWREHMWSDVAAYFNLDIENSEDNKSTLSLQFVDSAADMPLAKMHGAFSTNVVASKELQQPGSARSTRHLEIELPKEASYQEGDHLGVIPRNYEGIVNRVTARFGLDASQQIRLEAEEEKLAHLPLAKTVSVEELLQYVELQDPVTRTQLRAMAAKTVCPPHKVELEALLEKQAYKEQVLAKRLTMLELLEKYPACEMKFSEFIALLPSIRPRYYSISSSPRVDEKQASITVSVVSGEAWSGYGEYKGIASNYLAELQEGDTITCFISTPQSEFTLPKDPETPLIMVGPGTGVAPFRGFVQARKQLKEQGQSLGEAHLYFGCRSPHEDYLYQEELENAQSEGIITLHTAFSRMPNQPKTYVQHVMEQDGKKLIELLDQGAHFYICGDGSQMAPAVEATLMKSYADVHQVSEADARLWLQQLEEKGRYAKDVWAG

Usually Kd stands for the equilibrium constant for the complex coming apart. CYP2B4 (from UniProt P00178): the Kd in data set [1] is 370 nM.
For the substance CYP3A4 (from UniProt P08684), the values for the Kd in data set [2], in data set [3] and in data set [4] were 480 nM, 140 nM and 100 nM, respectively.
